Experimental data: the supplement of paper PMC9170038

These sequences were tested on K4 kissing-loop RNA reporter (assay: apparent KD of K4 kissing-loop reporter; higher = weaker reporter binding). Settings: Eterna round: R107; input ligand: FMN 200 uM.
Procedure: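 RNA-MaP round R107: designed RNA switches with theophylline, tryptophan, arginine or FMN aptamers are transcribed on-chip within common flanks. They are titrated with a labelled K4 kissing-loop RNA reporter in RNA-MaP buffer (100 mM Tris pH 7.5, 80 mM KCl, 4 mM MgCl2), without ligand or with the indicated ligand. Median apparent KD per design.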
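Also: bound reporter read as fluorescence of individual clusters on recovered sequencing chips by microscopy, with normalized cluster intensities fitted with a binding model.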

Row | Sequence | apparent KD of K4 kissing-loop reporter [nM]
1 | CCUGCAGCUGUAACCGAGUGAUGAUACGGACGAGGACCGGUACGGCCGCCACUCGCCAGUGAUGUUGGUGUGGGAGGACGUAACU [KL-XTryp-A23] | 241
2 | AAGUGAUGUUGUAGUGAUGUUGUGAUGUUGCAGGAUAUAUAGUGAUGUAGAAGGGUAAGUACUGAUGUUGUUAGUAAGUGAUGUU [tvvbmullin] | 106
3 | GCCUGGGCACGAAGGAGCGCCGUGACAGGUUACUGCCUUGGGCAGUGAUGUUGCUCAAUCUGGCAGGUAGGUCGCGUGCCCAGGC | 162
4 | AGACUACCACACUGUCAAUAGACAGUGGACUAGGAUAUGCUGAUAAGCAGAAGGAGUGAUGUUCCUGGGUAGUCAAUAAAAUAAU [FmnAX 13 G28+G67] | 484
5 | GGACGCCGGUCGGCCGCCACUCACAGCAGUGAUGUUGCUGAGCUUGUAGCGGAGUGAUGUUCCGAGAGGACCGGGACUGCAGUUU [Same State Tryptophan B GF 10] | 522
6 | GGUUCCUCAGUGAUGUUGAGGUGACCUCGGCAGGAUAUAGGCAUUACUAGAAGGGCCAAAAGAACCCUGUCCAGCGACACAGGGU [Inatinar] | 157
7 | GAUACACUUUCAGGUAUCCAGUGACUGGAUACCAGCAUGGAAACAUGCCCUUGGCAGCCAGAACUGGAAGUGAUGUUUCCAGUAA [Design7] | 215
8 | GGUAGCAUGGCGGCCGCCACUUAGACCCUCCAGGAUGAGGGAAAAUAGCAGUGAUGUUGCUAGGUAAGGACCGGGCCAUGCUACC | 230
9 | CAGACCACAGAGUGAUGUUCUGUGUCCGAAGGAGCGCGCGAGAGCGCAGGUAGGUCGCGGAUACAGUUGACGUACCUUCAAGACA [Arg A Ex t3] | 193
10 | AAAUCGUUCAGAAGGAGCGUGGAUUAUUCUUAUAUAUUUAUUACGAGUGAUGUUCGUAAUUCACAGGUAGGUCGCUGAUCGAUAA [JR_ExcArginiB_Sub004] | 106
11 | AAUAAAAUCACGGCCGCCACUGAAUAAUUGUUAAGUAGUGAUGUUACUUUACUUUUCUUAGUUAACAGGACCGGGUGAAUAUUUA [#18 K4 Tryptophan B Exclusion] | 113
12 | UUGUUUUACUGAAGGAGCGGCAAUUGAUACGUAGAUAUAGUGAUGUUAUAUAAGAUAGAGAGCCAGGUAGGUCGCAGAGGUGUUU [ExArgB.S] | 176
13 | UGUGAACAAAAGUAGAGUGGACCACUAUAGCGAGGACCGGUACGGCCGCCACUCGUAUAUGAAUUCAGUGAUGUUGAAAAGAGCU [whbob_EX_Tryp_A_t10] | 180
14 | CAUAUUUCGGCGGCCGCCACUGACCAUAGCCUUCGAUGGCCAGUGAUGUUGGCCUCUGGCUCUAACAGGACCGGGCCGAAUUGUG [Uslaxe] | 239
15 | AGACUACCACACUGUCAAUAGACAGUGAACUAGGAUAUGCUGAUAAGCAGAAGGAGUGAUGUUCCUAAUAAAAGGUAGUCAUAAU [FmnAX 16 #SwitchBubble #StaticStem #K4Early] | 426
16 | ACACUUUACGUAGGAUAUGCGACGAGUGAUGUUCGUCAGGCGGCUUUAGCUUAAGCAAGCCGCCUAGCAGAAGGACGGGCAGUGU [Bigemalaza] | 139
17 | GUCCCAGUGAUGUUGGUAGGCGAGCGGGAUACCAGCCAAGACUCAGGCCCUUGGCAGCCCACAUAUCCCACGUAGGGAGUAGCUC [Same State - Theophylline A (Freestyle 18)] | 269
18 | AAUGCAUAGUGAAGGAGCGCGAUAAGCAGUGAUGUUGCUUAGUUAUUAGUGUUUAUUUAUACGCAGGUAGGUCGCACUUUGCAUA [JR_ExcArginiB_Sub018] | 115
19 | UGAUAGCCAGUGAUGUUGGCAUGUACUGAAGGAGCGCGUGGAAACGCAGGUAGGUCGCAGUUCCUUGCCAAUUGAUCGAAAGAUC [#09 K4 Arginine A Exclusion] | 249
20 | CUCAAGUGAGGAUUUCGACAUCAAGAUGUGAAGGAUAUGUUACCAAACAGAAGGUCACGAUGUCAUCUAUGAGUGAUGUUCAGGA [theeternabot_sameState_KL_FMN_A_31] | 208
21 | AAGUGAUGUUGUAGUGAUGUUGUGAUGUUGCAGGAUAUAUAGUGAUGUAGAAGGGUAAGUACUGAUUUUGUUUGUGAGUGAUGUU [zqqzzrmullin] | 92.8
22 | GCUGAUCGUUUUCCACGAUGCGGCUAAUAAAAGGAUAUUGGUAUAUCAAGAAGGUUUGUUCUGUGUAGUGAUGUUGCACCGUGUU [theeternabot_sameState_KL_FMN_A_28] | 77.5

Row | Sequence | apparent KD of K4 kissing-loop reporter [nM]
23 | ACAGAUGCUAGUGAUACCAGACUAGCACUACGUAAUAUGUCAAGUGAUGUUUGACAACUAGUCCCUUGGCAGCGCGAUACGUCUG [Theo B SS t2] | 297
24 | GGGUGGUAGGCGGCCGCCACUCUGAGCACCCACUGAGUGAUGUUCGUGGCGUAAGCCUGUUCUUAGAGGACCGGGUUUGUUGUUC [Exclusion Tryptophan B GF 17] | 207
25 | AUUUUAGAGUGAUGUUCUAAUUGAUCAGAUACCAGACAAUUAUAAGUCCCUUGGCAGCUGUAGCCGAUAAAUUUAUUUAAUUUAA [JR_SSTheophyA_Sub024] | 229
26 | UGACGCCUGUCGGCCGCCACUCACAGCAGCCAGUGAUGUUGGAUUGUAGCGGAGUGAUGUUUCGCGAGGACCGGGACUGCAGUUG [Same State Tryptophan B GF 13] | 259
27 | AGGAUCCGUCGACAAAAGUCGACAUAAUCCAAGGAUAUGACGAAAGUCAGAAGGUGGGCAUAAGUCCAGUGAUGUUGGAGGAUCC [FmnA 18 #SwitchBubble #K4Late] | 575
28 | UGUCAUUGGUCGGCCGCCACUAGGACCGGGUAUAACCCAGUGAUGUUGGUAAAUACGGCCGCCACUAGGACCGGGACCGAUGACU [TrypBS 14 #DoubleAptamer #SwitchBubble #K4Middle] | 263
29 | UCUGGAGCAUAUGAUACCAGCAGUGAGAGACAGGAAGUAUAGUGAUGUUAUAUGAGAGAAUGCCCUUGGCAGCGUGUGCAGUGGC [SSTheophylB.P] | 104
30 | UGAUAGGAGUGAAGGAGCGGGAGUGAUGUUCCCAAAAUGGAAGCCUGUAAAAUACAGGCCUCCCAGGUAGGUCGCACUCCUAUCU [KL-XARG-B17] | 98.3
31 | AGACUACCUACACUGUCAAUAGACAGUGACUAGGAUAUGCUGAUAAGCAGAAGGAGUGAUGUUCCAAAUAAAAGGUGGUAGUCAU [FmnAX 18 #SwitchBubble #StaticStem #K4Early] | 378
32 | CGAUCUUGGUCGGCCGCCACUACACCCACACCAAAUAGGAAAGUAGCGAGUGAUGUUUGUGACGUUAGGACCGGGACCACUGGUC [theeternabot_sameState_KL_Trp_B_25] | 586
33 | AAGUGUUCUAGUGAUACCAGACAAUUUUAUUUUUUCUUUUUUGCUAAGUGAUGUUUAGCAGUCCCUUGGCAGCACUAUUUCACUA [JR_SSTheophyB_Sub018] | 129
34 | GUCGAUGGUAACCGCUGACGUCGAUGAUGGGAGGAUAUGUUAGUUGACAGAAGGCCCAGUGAUGUUGGGCGUUUGUCUUGGUAUA [Ustecexe] | 517
35 | UAAGAAUAAGUAGCAGUGAUGUUGCUACUACGAGGACCGGUACGGCCGCCACUCGAGCCGUACCAACUGCUACAAGGUACGAAUA [(H1)-(H2)-(Trp1)-(Trp2)-(T)'-(H)'-(T)''] | 281
36 | AGUGUCAGUGAUGUUGAGAAGAUGGGUACUAAGGAUAUGCGGCGAUGCAGAAGGUAGAAUGAUUAGUUCGCAUGUUAUGAGGGAU [theeternabot_exclusion_KL_FMN_A_46] | 484
37 | AGUGAAGUUAGUGAUGUGUGAGUUUGGGAAGGAGCGCCGAGGAAGGCAGGUAGGUCGCCCAGUGAUGUUGGUGUAAAGAUGAGAG [whbob_Ex_Arginine_A_2t122] | 308
38 | AUAUACCAGUGAUGUUGGUAUACUAUCGAUACCAGUAGAUACCAAUACCCUUGGCAGCGAUAAGACCGUACUGUAGCCAGUACUU [Theo A SS t4] | 250
39 | ACGUCCGGAUUAAUCGUGGGCAUGGUGGAUACCAGUUCUUUAAUGAACCCUUGGCAGCCACAUGAGUGAUGUUCAUGUGCGAUGA [KL-XTheo-A9 #analogue] | 145
40 | AAGUGUCAUUAGACACACUGAUGUAUAAACUAGGAUAUGCUGAUAAGCAGAAGGAGUGAUGUUCCUUUCAUCAUCAGAAUUAAAU [KL-XFMN-A2] | 167
41 | UGACUGGACUGAAGGAGCGCUGAACUCCUAGUGAUGUUAGGAUAACGAGACAAAGUCUCGAAGCAGGUAGGUCGCAGUCUAGUCU | 118
42 | AUGCUUUUAAUAACACUAUAUACAACUGAAGGAGCGACAAUAAAGUCAGGUAGGUCGCAGAAUAAAUGAGUGAUGUUCAUUUUUA [JR_ExcArginiA_Sub009] | 82.2
43 | UUAGUCUAGAGAGGAUAUCAGUGAUGUUGAUAUCAAGAUCAUAGAUAGAAUUCUAUCUAUGAUCAAUGAGAAGGCUCUAGACAUU [AK1 Exc FMN B] | 746

Same assay, conditions: Eterna round: R107; input ligand: arginine 13.2 mM

Row | Sequence | apparent KD of K4 kissing-loop reporter [nM]
44 | CCUGCAGCUGUAACCGAGUGAUGAUACGGACGAGGACCGGUACGGCCGCCACUCGCCAGUGAUGUUGGUGUGGGAGGACGUAACU [KL-XTryp-A23] | 177
45 | AAGUGAUGUUGUAGUGAUGUUGUGAUGUUGCAGGAUAUAUAGUGAUGUAGAAGGGUAAGUACUGAUGUUGUUAGUAAGUGAUGUU [tvvbmullin] | 50.1
46 | GCCUGGGCACGAAGGAGCGCCGUGACAGGUUACUGCCUUGGGCAGUGAUGUUGCUCAAUCUGGCAGGUAGGUCGCGUGCCCAGGC | 162
47 | AGACUACCACACUGUCAAUAGACAGUGGACUAGGAUAUGCUGAUAAGCAGAAGGAGUGAUGUUCCUGGGUAGUCAAUAAAAUAAU [FmnAX 13 G28+G67] | 366
48 | GGACGCCGGUCGGCCGCCACUCACAGCAGUGAUGUUGCUGAGCUUGUAGCGGAGUGAUGUUCCGAGAGGACCGGGACUGCAGUUU [Same State Tryptophan B GF 10] | 506
49 | GGUUCCUCAGUGAUGUUGAGGUGACCUCGGCAGGAUAUAGGCAUUACUAGAAGGGCCAAAAGAACCCUGUCCAGCGACACAGGGU [Inatinar] | 304
50 | GAUACACUUUCAGGUAUCCAGUGACUGGAUACCAGCAUGGAAACAUGCCCUUGGCAGCCAGAACUGGAAGUGAUGUUUCCAGUAA [Design7] | 166
51 | GGUAGCAUGGCGGCCGCCACUUAGACCCUCCAGGAUGAGGGAAAAUAGCAGUGAUGUUGCUAGGUAAGGACCGGGCCAUGCUACC | 120
52 | CAGACCACAGAGUGAUGUUCUGUGUCCGAAGGAGCGCGCGAGAGCGCAGGUAGGUCGCGGAUACAGUUGACGUACCUUCAAGACA [Arg A Ex t3] | 179
53 | AAAUCGUUCAGAAGGAGCGUGGAUUAUUCUUAUAUAUUUAUUACGAGUGAUGUUCGUAAUUCACAGGUAGGUCGCUGAUCGAUAA [JR_ExcArginiB_Sub004] | 126
